This data set can be described thus: yeast display, Sf9 membrane polyspecificity reagent, FACS + sequencing; frameworks hold sequencing errors. The method, boiled down: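 Nanobodies came from a synthetic yeast display library in Saccharomyces cerevisiae BJ5465, induced with galactose for 36–48 hours and stained for 1 hour at 4 °C with 10% biotinylated, detergent-solubilized Sf9 membrane reagent. Cells were enriched on streptavidin microbeads and then FACS-sorted, with low and high (top ~1%) gates set on anti-HA fluorescence for expression and streptavidin fluorescence for reagent binding. Each polyreactivity label reflects the gate a clone came from. Genes were amplified by colony PCR, sequenced by MiSeq 2 × 250 and filtered by CDR length.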
Turning to “QVQLVESGGGLVQAGGSLRLSCAASGFIFTAYAMGWYRQAPGKERELVAGIRSGSATYYADSVKGRFTISRDNAKNTVYLQMNILKPEDTAVYYCNAEKYNFIYAYEYWGQGTQVTVSS”, the “polyreactivity (PSR sort gate)” value was “low polyreactivity”. The value for “QVQLVESGGGLVQAGGSLRLSCAASGFIFTDNAMGWYRQAPGKERELVAAISKNGGSTYYADSVKGRFTISRDNAKNTVYLQMNSLKPEDTAVYYCNTRRKNFDKSSQVEYWGQGTQVTVSS” was “high polyreactivity”; that for “QVQLVESGGGLVQAGGSLRLSCAASGFIFTEYAMGWYRQAPGKEREFVAAISWSGGSTYYADSVKGRFTISRDNAKNTVYLQMNSLKPEDTAVYYCAKRSRGVKYDYWGQGTQVTVSS” was “high polyreactivity”; that for “QVQLVESGGGLVQAGGSLRLSCAASGFIFTFYALGWYRQAPGKEREFVASIDWGDGSTYYADSVKGRFTISRDNAKNTVYLQMNSLKPEDTAVYYCAHDYDGYVWDTEYDYWGQGTQVTVSS” was “low polyreactivity”. As for “QVQLVESGGGLVQAGGSLRLSCAASGFIFTFYAMGWYRQAPGKEREFVASIDWGDGSTYYADSVKGRFTISRDNAKNTVYLQMNSLKPEDSAVYYCAHDYDGYVWDTEYDYWGQGTQVTVSS”, the “polyreactivity (PSR sort gate)” value was “low polyreactivity”.

Take “QVQLVESGGGLVQAGGSLRLSCAASGFIFTGNVMGWYRQAPGKERELVAAIRWSGGRTYYADSVKGRFTISRDNAKNTVYLQMNSLIPEDTAVYYCNALGRVQGYKPGGLDYWGQGTQVTVSS”: the “polyreactivity (PSR sort gate)” value is recorded as “high polyreactivity”.

As for “QVQLVESGGGLVQAGGSLRLSCAASGFIFTGNVMGWYRQGPGKERELVAGITYTSGSTYYADSVKGRFTISRDNAKNTVYLQMNSLKPEDTAVYYCAAEVYVPDYFQHKFDVEYEYWGLGTQVTVSS”, the “polyreactivity (PSR sort gate)” value is “low polyreactivity”. Next, “QVQLVESGGGLVQAGGSLRLSCAASGFIFTGYAMGWYRQAPGKERELVAAITKSGGSTYYADSVKGRFTISRDNAKNTVYLQMNSLKPEDTAVYYFNTYLWRWSKGGYLGQGTQVTVSS”: “high polyreactivity”. The value for “QVQLVESGGGLVQAGGSLRLSCAASGFIFTKYVMGWYRQAPGKERELVAAISLNGGRTYYADSVKGRFTISRDNAKNTVDLQMNSLKPEDTAVYYCAVDAKAVSARTYDYGYWGQGTQVTVSS” was “high polyreactivity”.

As for “QVQLVESGGGLVQAGGSLRLSCAASGFIFTQNGMGWYRQAPGKERELVAAISWSAGGTYYADSVKGRFTISRDNANNTVYLQMNSLKQEDTAVYYCNAELYFYWNVWVGYDYWGQGTQVTVSS”, the “polyreactivity (PSR sort gate)” value is on record as “low polyreactivity”. The value for “QVQLVESGGGLVQAGGSLRLSCAASGFIFTQYAMGWYRQAPGKERELVAAITRSGGRTYYADSVKGRFTISRDNAKNTVYLQMNSLIPEDTAVYYCAVDTVTRTVLVYGDRNDSWGQGTQVTVSS” was “high polyreactivity”; that for “QVQLVESGGGLVQAGGSLRLSCAASGFIFTRYAMGWYRQAPGKERELVAAISGTGGSTYYADSVKGRFTISRDNSKNTFFLQMNSLKPEDTAVYYCAAGYFVYLKYGYWGQGTKVTVSS” was “high polyreactivity”; that for “QVQLVESGGGLVQAGGSLRLSCAASGFIFTTYGMGWYRQAPGKERELVAAISYRGDSTYYADSVKGRFTISRDNAKNTVYLQMNSLKPEDTAVYYCAADVTQKPYGLSHGQDAYDYWGQGTQVTVSS” was “low polyreactivity”. In the case of “QVQLVESGGGLVQAGGSLRLSCAASGFIFTYNAMGWYIQAPGKEREFVASISRSGGRTYYADSVKGRFTISRDNAKNTVYLQMNSLKPEDTAVYYCAARNAYVYGMDYWGQGTQVTVSS”, the “polyreactivity (PSR sort gate)” value is on record as “low polyreactivity”. Next, “QVQLVESGGGLVQAGGSLRLSCAASGFIFTYNAMGWYRQAPGKERELVASIRSTGGSTYYADSVKGRFTISRDNAKNTVYLQMNSLKPEDTAVYYCAARARGTNMYYWGQGTQVTVSS”: “high polyreactivity”. Next, “QVQLVESGGGLVQAGGSLRLSCAASGFIFTYNTMGWDRQAPGKERELVAAISLRGGNTYYADSVKGRFTISRDNAKNTVYLQMHSLKPEDTAVYYCAALGKYRSGNYFGQGTQVTVSS”: “high polyreactivity”.

“QVQLVESGGGLVQAGGSLRLSCAASGFIFTYYAMGWYRPEHGKERDLVATINWSDGSTRYADSVKGRFTISRDNAKNTDYLQMNSLKPEDTAVYYCAKDWFNRPSVEMDYWGQGTQVTVSS”: the “polyreactivity (PSR sort gate)” value is “low polyreactivity”.

As to “QVQLVESGGGLVQAGGSLRLSCAASGFIFTYYAMGWYRQAPGKERELVAAISWDGGSTYYADSVKGRFTISRDNAKNTVYLQMNSLKPEDTAVYYCNRDLYGYVRYDYWGQGTQVTVSS”, the “polyreactivity (PSR sort gate)” value is on record as “low polyreactivity”. “QVQLVESGGGLVQAGGSLRLSCAASGFIFVANAMGWYRQAPGKERELVAAISFSGGRTYYADSVKGRFTISRDNAKNTVYLQMNSLKPEDTAVYYCNTVSEWWAGDHPDAEFDYWGQGTQVTVSS”: the “polyreactivity (PSR sort gate)” value is given as “low polyreactivity”. The value for “QVQLVESGGGLVQAGGSLRLSCAASGFIFVDNAMGWYRQAPGKERELVAAITYRGGSTYYADSVKGRFTISRDNAKNTVYLQMNSLKPEVTAVYYCNADYGDTFEYDYWGQGTQVTVSS” was “low polyreactivity”. The value for “QVQLVESGGGLVQAGGSLRLSCAASGFIFVDYTMGWYRQAPGKERELVAAITWTGGSTYADSVKGRFTISRDNAKNTVYLQMNSLKPEDTAVYYCAAGQGPDMDYWGQGTQVTVSS” was “low polyreactivity”; that for “QVQLVESGGGLVQAGGSLRLSCAASGFIFVENAMGWYIQAPGKERELVASISRRGGSTYYADSVKGRFTISRDNAKNTVYLQMNSLKPEDTAVYYCAATLGRTRYNYWGQGTQVTVSS” was “high polyreactivity”; that for “QVQLVESGGGLVQAGGSLRLSCAASGFIFVFYAMGWYIQAPGKERELVAAITWSGGGTYYADSVKGRFTISRDNAKNTVYLQMNSLKPEDTAVYYCNTDASPYLFDYWGQGTQVTVSS” was “low polyreactivity”. The value for “QVQLVESGGGLVQAGGSLRLSCAASGFIFVGYAMGWYRQAPGKERELVAAISYSGGRTYYADSVKGRFTISRDNAKNTVYLQMNSLKPEDTAVYYCAAQSRYGGKFYYWGQGTQVTVSS” was “high polyreactivity”.

On to “QVQLVESGGGLVQAGGSLRLSCAASGFIFVKNAMGWYRQAPGKERELVAVISTRGGRTYYADSVKGRFTISRDNAKNTVYLQMNSMKPEDTAVYYCAAGDQYKTRRNGYGYWGQGTQVTVSS”, for which the “polyreactivity (PSR sort gate)” value was “high polyreactivity”. Next, “QVQLVESGGGLVQAGGSLRLSCAASGFIFVKYAMGWYIQAPGKERELVAAITTSGTGTFYADSVKGRFTISRDNAKYTVYLQMNRLKPEDTAVYYCNALGHPGDDWGQGTQVTVSS”: “low polyreactivity”. The value for “QVQLVESGGGLVQAGGSLRLSCAASGFIFVPYALGWYRQAPGKERELVAAISSGGSTYYADSVKGRFTISRDNAKNTVYLQMNSLKPEDTAVYYCNTRYYLYQYRYDYWGQGTQVTVSS” was “low polyreactivity”; that for “QVQLVESGGGLVQAGGSLRLSCAASGFIFVRNAMGLYRQAPGKEREFVAAITRSGGSTYYADSVKGRFTISRDNAKNTVYLQMNSLKPEDTAVYYCAARIHGSWSFDYWGQGTQVTVSS” was “low polyreactivity”; that for “QVQLVESGGGLVQAGGSLRLSCAASGFIFVRNTRGWYRQAPGKERELVAAISSRGGRTYYADSVKGRFTISRDNAKNTVYLQMNSLKPEDTAVYYCAKAHSVNQRYDYWGQGTQVTVSS” was “high polyreactivity”. Turning to “QVQLVESGGGLVQAGGSLRLSCAASGFIFVRYAMGWYRQAPGKEREFVASITRSDGSTYADSVKGRFTISRDNAKNTVYIQMNSLKPEDTAVYYCNKDNHDVELPVEFEYWGQGTQVTVSS”, the “polyreactivity (PSR sort gate)” value was “high polyreactivity”. With “QVQLVESGGGLVQAGGSLRLSCAASGFIFVRYAMGWYRQAPGKERELVAAISKSGGRTYYADSVKGRFTISRDNAKNTVYLQMNSLKPEDTAVYYCAAYYYVGRVVSFDYWGQGTQVTVSS”, the “polyreactivity (PSR sort gate)” value was “high polyreactivity”. Take “QVQLVESGGGLVQAGGSLRLSCAASGFIFVRYAMGWYRQAPGKERELVAAISSSGGTTNYADSVKGRFTISRDNAKHTVYLQMNSLKPEDTAVYYCNADYYWFFDFFDYDYWGQGTQVTVSS”: the “polyreactivity (PSR sort gate)” value was “low polyreactivity”. Regarding “QVQLVESGGGLVQAGGSLRLSCAASGFIFVVNAMGWYRQAPGKEREFVAVISSSTGSTYYADSVKGRFTISRDNAKNTVYLQMNSLKPEDTAVYYCAAASRRRRPLNRMDYWGQGTQVTVSS”, the “polyreactivity (PSR sort gate)” value is “low polyreactivity”.

Turning to “QVQLVESGGGLVQAGGSLRLSCAASGFIFVYYAMGWYRQAPGKERELVAAISKRGGNTYYADSVKGRFTISRDNAKNTVYLQMNSLKPEDTAVYYCAAGFTTRRGEYNYWGQGTQVTVSS”, the “polyreactivity (PSR sort gate)” value is “high polyreactivity”. Next, “QVQLVESGGGLVQAGGSLRLSCAASGFIFWFNALGWYRQAPGKERELVATISWSDTSTYYADSVKGRFTISRDNAKNTVYLQMNSLKPEDTAVYYCATDGRETWLPEYYWGQGTQVTVSS”: “low polyreactivity”. The value for “QVQLVESGGGLVQAGGSLRLSCAASGFIFWLYAMGWYRKAPVKESELVAAISWSDGSTYYADSVKGRFTISRDNAKNSVYLQMNCLKREDTAVYYCNTVRVHGFPIDRIYDYWGQGTQVTVSS” was “high polyreactivity”; that for “QVQLVESGGGLVQAGGSLRLSCAASGFIFWLYAMGWYRQAPGKERELVAAISRSGGRTYYADSVKGRFTISRDNAKNTVYLQMNSLKPEDTAVYYCAKDDNYKSYPYDYWGQGTQVTVSS” was “high polyreactivity”; that for “QVQLVESGGGLVQAGGSLRLSCAASGFIFWRNAMGWYRQAPGKERELVAAITSGDRTNYADSVKGRFTISRDNAKNTVYLQMNSLKPEDTAVYYCNARRLRLVSYDYCGQGTQVTVSS” was “low polyreactivity”. The value for “QVQLVESGGGLVQAGGSLRLSCAASGFIFWSYAMGWYIQAPGKERELVAAINTSGDSTYYADSVKGRFTISRDNAKNTVYLQMNSLKPEDTAVYYCAAKSSTRGDYWGQGTQVTVSS” was “low polyreactivity”; that for “QVQLVESGGGLVQAGGSLRLSCAASGFIFWWYAMGWYRQAPGKERELVATITASVGSTNYADSVKGRFTISRDNAKNTVYLQMNSLKPEDTAVYYCASDIIGAIRDWDHTRMDYWGQGTQVNVSS” was “low polyreactivity”; that for “QVQLVESGGGLVQAGGSLRLSCAASGFIFWYNAMGWYRQAPGKERELVADNTSGGSTTYADSVKGRFTISRDNAKNTVYLQMNSLKPEDTAVYYCAASIRRYWLHPGDYWGQGTQVTVSS” was “low polyreactivity”.

Values taken from the nanobody polyreactivity screen of Harvey et al. (2022).
